Source: PMC4992955, “Pichia pastoris Fep1 is a [2Fe-2S] protein with a Zn finger that displays an unusual oxygen-dependent role in cluster binding”

Legend:
[1] = biological target: Flag-Fep1 (1–208) WT (Pichia pastoris); test: SAXS; solution SAXS at ESRF beamline BM29, 293 K, three dilutions of each sample; as-purified and after reconstitution of the [2Fe-2S] cluster; molecular weights from ab initio calculation with ATSAS
[2] = biological target: Flag-Fep1 (1–208) WT (Pichia pastoris); test: SEC; analytical gel-filtration on Superdex-75 (10/300) in 25 mM MOPS pH 7, 150 mM NaCl; calibrated with conalbumin, ovalbumin, carbonic anhydrase and RNase A
MBP-Fep1 (41-192) WT = biological target: T1, MBP-Fep1 (41-192) WT (Pichia pastoris (GS115), UniProt A4VAR6 41-192); test: EMSA; 5 uM ZnSO4, 5 uM FeCl3; 12.5 mM Hepes pH 7.9, 75 mM NaCl, 4 mM MgCl2, 1 mM EDTA, 10% glycerol, 4 mM Tris-HCl pH 7.9, 0.6 mM DTT, 1 ug poly(dI-dC)2, 5 uM ZnSO4, 5 uM FeCl3; 100-250 ng protein, 1 ng probe, 20 min at 25 C; 6% native gel at 4 C; conditions: protein: recombinant; tags: MBP fusion; label: 32P end-label (alpha-32P); 5' overhangs: 4 nt on S3, 3 nt on S4 as printed; 32 bp duplex
T1 sequence: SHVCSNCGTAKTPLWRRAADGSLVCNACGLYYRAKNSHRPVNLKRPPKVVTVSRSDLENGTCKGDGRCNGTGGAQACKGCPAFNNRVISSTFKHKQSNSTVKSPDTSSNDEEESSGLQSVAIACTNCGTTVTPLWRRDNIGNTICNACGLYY

Molecule	stoichiometry N [1]	stoichiometry N [2]	binding result (MBP-Fep1 (41-192) WT)
Flag-Fep1 (1–208) WT (domain or fragment)	2	2	
fetgata2/fetgata1 (FET3 promoter GATA probe) (dsDNA) DNA 1: GGCGATTGAACTGATAATTTTACTAAATAAGTGGAA DNA 2: GGATTCCACTTATTTAGTAAAATTATCAGTTCAAT			binds
